Results as given in article PMC10502629.

How the values were obtained:
[1] = biological target: SC-A0A4 (SpyCatcher fused to the N-terminus of the AaLS homologue A0A497XTC1 of Hydrogenivirga caldilitoris) (Hydrogenivirga caldilitoris); test: covalent SpyCatcher/SpyTag conjugation read by SDS-PAGE; purified SC-scaffolds incubated with ST-OVAT in conventional buffer without any enzyme (4 °C, 16 h in Figure 3e); conjugates purified by SEC, SDS-PAGE with Coomassie staining; reactivity kept after heating at 75 °C or 5 x …
[2] = biological target: SC-AaLS (SpyCatcher fused to the N-terminus of Aquifex aeolicus lumazine synthase) (Aquifex aeolicus); test: as above

- percent conjugated [1]: 100%
- percent conjugated [2]: 100%
Substance: ST-OVAT (SpyTag fused to the N-terminus of ovalbumin T epitopes) (peptide)
